Results as given in paper PMC8333309, “Mechanism of LolCDE as a molecular extruder of bacterial triacylated lipoproteins” (Nature Communications, 2021).

Substrate: Nc1ncnc2c1ncn2[C@@H]1O[C@H](COP(=O)(O)OP(=O)(O)OP(=O)(O)O)[C@@H](O)[C@H]1O
Experiment: colorimetric phosphate-release ATPase assay
Format: biochemical, Escherichia coli
Conditions: LolCDE in POPG nanodiscs, MgCl2, 25 mM Tris pH 8, 150 mM NaCl, 37 °C, basal activity, no lipoprotein added

B1: LolCDE (Escherichia coli K-12) (protein)
chain: MNKILLQCDNLCKRYQEGSVQTDVLHNVSFSVGEGEMMAIVGSSGSGKSTLLHLLGGLDTPTSGDVIFNGQPMSKLSSAAKAELRNQKLGFIYQFHHLLPDFTALENVAMPLLIGKKKPAEINSRALEMLKAVGLDHRANHRPSELSGGERQRVAIARALVNNPRLVLADEPTGNLDARNADSIFQLLGELNRLQGTAFLVVTHDLQLAKRMSRQLEMRDGRLTAELSLMGAE
notes: co-expressed in E. coli BL21(DE3); purified in DDM, reconstituted into MSP1D1/POPG nanodiscs; co-purifies with lipoprotein; with Lipoprotein-releasing system transmembrane protein LolC; Lipoprotein-releasing system transmembrane protein LolE
Km: 0.19 ± 0.05 mM
